# In publication PMC8795117:
# Columns and labels:
# [1] = biological target: BmdC (Thermoactinomyces vulgaris F-5595); assay: SEC; size-exclusion chromatography of BmdC alone (Supplementary Fig. 2e)
# [2] = biological target: BmdB (Thermoactinomyces vulgaris F-5595); assay: SEC; full-length BmdB and BmdC at 1–8 μM mixed (increasing BmdC, fixed BmdB), Superdex200 Increase 10/300, 50 mM Tris-HCl pH 7.5, 200 mM NaCl, 1 mM DTT
# [3] = biological target: BmdB (Thermoactinomyces vulgaris F-5595)
stoichiometry N [1],stoichiometry N (BmdB molecules per BmdC dimer) [2],decrease in oxidation to bacillamide D in peptide synthesis assays [3] [%],Substance
2,2,–,BmdC (enzyme)
–,–,50,BmdC_D225R (enzyme)
